Measurements from patent US20060159695A1.

Legend:
[1] = molecular target: RSV F protein (A2 strain) G438A (human RSV, A2 strain) (UniProt P03420); test: cell ELISA, 293T cells expressing F
[2] = molecular target: RSV F protein (A2 strain) F483Y (human RSV, A2 strain) (UniProt P03420); test: cell ELISA, 293T cells expressing F
[3] = molecular target: RSV F protein (A2 strain) K433D (human RSV, A2 strain) (UniProt P03420); test: cell ELISA, 293T cells expressing F
[4] = molecular target: RSV F protein (A2 strain) F488Y (human RSV, A2 strain) (UniProt P03420); test: cell ELISA, 293T cells expressing F
[5] = molecular target: RSV F protein (A2 strain) N428D (human RSV, A2 strain) (UniProt P03420); test: cell ELISA, 293T cells expressing F
[6] = molecular target: RSV F protein (A2 strain) N428Q (human RSV, A2 strain) (UniProt P03420); test: cell ELISA, 293T cells expressing F
[7] = molecular target: Wild-type RSV F protein (subgroup B, 18537 strain) (human RSV, 18537 strain) (UniProt P13843); test: cell ELISA, 293T cells expressing F
[8] = molecular target: RSV F protein (A2 strain) I432T (human RSV, A2 strain) (UniProt P03420); test: cell ELISA, 293T cells expressing F
[9] = molecular target: RSV F protein (A2 strain) S275F (human RSV, A2 strain) (UniProt P03420); test: cell ELISA, 293T cells expressing F
[10] = molecular target: RSV F protein (A2 strain) F435Y (human RSV, A2 strain) (UniProt P03420); test: cell ELISA, 293T cells expressing F
[11] = molecular target: RSV F protein (A2 strain) S436F (human RSV, A2 strain) (UniProt P03420); test: cell ELISA, 293T cells expressing F
[12] = molecular target: RSV F protein (A2 strain) K427D (human RSV, A2 strain) (UniProt P03420); test: cell ELISA, 293T cells expressing F
[13] = molecular target: RSV F protein (A2 strain) K272M (human RSV, A2 strain) (UniProt P03420); test: cell ELISA, 293T cells expressing F
[14] = molecular target: RSV F protein (A2 strain) F488L (human RSV, A2 strain) (UniProt P03420); test: cell ELISA, 293T cells expressing F
[15] = molecular target: RSV F protein (A2 strain) K433Q (human RSV, A2 strain) (UniProt P03420); test: cell ELISA, 293T cells expressing F
[16] = molecular target: RSV F protein (A2 strain) K427Q (human RSV, A2 strain) (UniProt P03420); test: cell ELISA, 293T cells expressing F
[17] = molecular target: RSV F protein (A2 strain) I432L (human RSV, A2 strain) (UniProt P03420); test: cell ELISA, 293T cells expressing F
[18] = molecular target: RSV F protein (A2 strain) I431A (human RSV, A2 strain) (UniProt P03420); test: cell ELISA, 293T cells expressing F
[19] = molecular target: RSV F protein (A2 strain) R429K (human RSV, A2 strain) (UniProt P03420); test: cell ELISA, 293T cells expressing F
[20] = molecular target: RSV F protein (A2 strain) D486N (human RSV, A2 strain) (UniProt P03420); test: cell ELISA, 293T cells expressing F
[21] = molecular target: RSV F protein (A2 strain) I431L (human RSV, A2 strain) (UniProt P03420); test: cell ELISA, 293T cells expressing F
[22] = molecular target: RSV F protein (A2 strain) N437D (human RSV, A2 strain) (UniProt P03420); test: cell ELISA, 293T cells expressing F
[23] = molecular target: RSV F protein (A2 strain) K427E (human RSV, A2 strain) (UniProt P03420); test: cell ELISA, 293T cells expressing F
[24] = molecular target: Wild-type RSV F protein (subgroup A, A2 strain) (human RSV, A2 strain) (UniProt P03420); test: cell ELISA, 293T cells expressing F
[25] = molecular target: RSV F protein (A2 strain) I432Q (human RSV, A2 strain) (UniProt P03420); test: cell ELISA, 293T cells expressing F
[26] = molecular target: RSV F protein (A2 strain) K433L (human RSV, A2 strain) (UniProt P03420); test: cell ELISA, 293T cells expressing F
[27] = molecular target: RSV F protein (A2 strain) S436T (human RSV, A2 strain) (UniProt P03420); test: cell ELISA, 293T cells expressing F
[28] = molecular target: RSV F protein (A2 strain) K272Q (human RSV, A2 strain) (UniProt P03420); test: cell ELISA, 293T cells expressing F
[29] = molecular target: RSV F protein (A2 strain) R429S (human RSV, A2 strain) (UniProt P03420); test: cell ELISA, 293T cells expressing F
[30] = molecular target: RSV F protein (A2 strain) K433T (human RSV, A2 strain) (UniProt P03420); test: cell ELISA, 293T cells expressing F
[31] = molecular target: RSV F protein (A2 strain) V447A (human RSV, A2 strain) (UniProt P03420); test: cell ELISA, 293T cells expressing F
[32] = molecular target: RSV F protein (A2 strain) K433N (human RSV, A2 strain) (UniProt P03420); test: cell ELISA, 293T cells expressing F
[33] = molecular target: RSV F protein (A2 strain) F483L (human RSV, A2 strain) (UniProt P03420); test: cell ELISA, 293T cells expressing F
[34] = molecular target: RSV F protein (A2 strain) T434S (human RSV, A2 strain) (UniProt P03420); test: cell ELISA, 293T cells expressing F
[35] = molecular target: RSV F protein (A2 strain) K272T (human RSV, A2 strain) (UniProt P03420); test: cell ELISA, 293T cells expressing F
[36] = molecular target: RSV F protein (A2 strain) G430A (human RSV, A2 strain) (UniProt P03420); test: cell ELISA, 293T cells expressing F
[37] = molecular target: RSV F protein (A2 strain) K272N (human RSV, A2 strain) (UniProt P03420); test: cell ELISA, 293T cells expressing F
[38] = molecular target: RSV F protein (A2 strain) K433S (human RSV, A2 strain) (UniProt P03420); test: cell ELISA, 293T cells expressing F
[39] = molecular target: RSV F protein (A2 strain) T400A (human RSV, A2 strain) (UniProt P03420); test: cell ELISA, 293T cells expressing F
[40] = molecular target: RSV F protein (A2 strain) K433R (human RSV, A2 strain) (UniProt P03420); test: cell ELISA, 293T cells expressing F
[41] = molecular target: RSV F protein (A2 strain) C422S (human RSV, A2 strain) (UniProt P03420); test: cell ELISA, 293T cells expressing F
[42] = molecular target: soluble, extracellular domain of recombinantly expressed RSV F protein (human RSV); test: SPR (BIAcore 3000), F protein amine-coupled to CM5 chip
[43] = molecular target: RSV F protein on human RSV virus (Long strain) (human RSV, Long strain) (UniProt P12568); test: cell-based or functional assay

## chimeric 101F mAb (antibody)
[1]
  % mAb binding relative to wild-type: 9.2%

## mAb19 (antibody)
[2]
  % mAb binding relative to wild-type: 141%
[3]
  % mAb binding relative to wild-type: 1.6%
[4]
  % mAb binding relative to wild-type: 56%
[5]
  % mAb binding relative to wild-type: 121%
[6]
  % mAb binding relative to wild-type: 194%
[7]
  % mAb binding relative to wild-type: 105%
[8]
  % mAb binding relative to wild-type: 170%
[9]
  % mAb binding relative to wild-type: 31.7%
[10]
  % mAb binding relative to wild-type: 9.2%
[11]
  % mAb binding relative to wild-type: 163%
[12]
  % mAb binding relative to wild-type: -12.7%
[13]
  % mAb binding relative to wild-type: 100%
[14]
  % mAb binding relative to wild-type: 40%
[15]
  % mAb binding relative to wild-type: 47.4%
[16]
  % mAb binding relative to wild-type: 155%
[17]
  % mAb binding relative to wild-type: 64.4%
[18]
  % mAb binding relative to wild-type: 81.8%
[19]
  % mAb binding relative to wild-type: 11.2%
[20]
  % mAb binding relative to wild-type: 30.7%
[21]
  % mAb binding relative to wild-type: 65.5%
[22]
  % mAb binding relative to wild-type: 33.2%
[23]
  % mAb binding relative to wild-type: 68.7%
[24]
  % mAb binding relative to wild-type: 99.9%
[25]
  % mAb binding relative to wild-type: 57.9%
[26]
  % mAb binding relative to wild-type: 24.5%
[27]
  % mAb binding relative to wild-type: 85.8%
[28]
  % mAb binding relative to wild-type: 88.7%
[29]
  % mAb binding relative to wild-type: 3.9%
[30]
  % mAb binding relative to wild-type: 64.4%
[31]
  % mAb binding relative to wild-type: 62.7%
[32]
  % mAb binding relative to wild-type: 28.7%
[33]
  % mAb binding relative to wild-type: 101%
[34]
  % mAb binding relative to wild-type: 84.9%
[35]
  % mAb binding relative to wild-type: 68%
[36]
  % mAb binding relative to wild-type: 0.15%
[37]
  % mAb binding relative to wild-type: 62.3%
[38]
  % mAb binding relative to wild-type: 112%
[39]
  % mAb binding relative to wild-type: 161%
[1]
  % mAb binding relative to wild-type: 19%
[40]
  % mAb binding relative to wild-type: 23.1%
[41]
  % mAb binding relative to wild-type: 194%

## palivizumab (antibody)
[42]
  Kd: 1.1 nM
[43]
  RSV neutralization IC50 (Palivizumab): 0.1 µg/mL

## palivizumab Fab
[42]
  Kd: 1.5 nM
  koff: 0.0011 s⁻¹
  kon: 720000 M⁻¹ s⁻¹
[43]
  RSV neutralization IC50 (Palivizumab Fab): 3.2 µg/mL
